One block for each molecule: values may come before it.
Assays:
[1] = tested on: GFP-14-3-3β and its binding proteins; experiment: GFP-14-3-3β co-IP with LC-MS/MS label-free quantification, untreated versus PP1c-treated; parameters: species or system human; settings: pairwise comparison PP1 vs untreated, student's t-test; 3 replicates each; LC-MS/MS label-free quantification
GFP-14-3-3β = GFP-14-3-3β co-IP with LC-MS/MS, untreated GFP-14-3-3β versus GFP control (14-3-3 interactome); type: binding, human; settings: pairwise comparison untreated GFP-14-3-3β vs GFP, student's t-test; 3 replicates each; LC-MS/MS label-free quantification

B2: FAM53B (protein, UniProt Q14153 1-422, looked up)
Protein FAM53B: MVMVLSESLSTRGADSIACGTFSRELHTPKKMSQGPTLFSCGIMENDRWRDLDRKCPLQIDQPSTSIWECLPEKDSSLWHREAVTACAVTSLIKDLSISDHNGNPSAPPSKRQCRSLSFSDEMSSCRTSWRPLGSKVWTPVEKRRCYSGGSVQRYSNGFSTMQRSSSFSLPSRANVLSSPCDQAGLHHRFGGQPCQGVPGSAPCGQAGDTWSPDLHPVGGGRLDLQRSLSCSHEQFSFVEYCPPSANSTPASTPELARRSSGLSRSRSQPCVLNDKKVGVKRRRPEEVQEQRPSLDLAKMAQNCQTFSSLSCLSAGTEDCGPQSPFARHVSNTRAWTALLSASGPGGRTPAGTPVPEPLPPSFDDHLACQEDLSCEESDSCALDEDCGRRAEPAAAWRDRGAPGNSLCSLDGELDIEQIEKN
Difference (log2), PP1 vs untreated [1]: -3.06 log2
Difference (log2), untreated vs GFP (GFP-14-3-3β): 2.4159 log2

B3: PDLIM5 (protein, UniProt Q96HC4 2-596, looked up)
PDZ and LIM domain protein 5: SNYSVSLVGPAPWGFRLQGGKDFNMPLTISSLKDGGKAAQANVRIGDVVLSIDGINAQGMTHLEAQNKIKGCTGSLNMTLQRASAAPKPEPVPVQKGEPKEVVKPVPITSPAVSKVTSTNNMAYNKAPRPFGSVSSPKVTSIPSPSSAFTPAHATTSSHASPSPVAAVTPPLFAASGLHANANLSADQSPSALSAGKTAVNVPRQPTVTSVCSETSQELAEGQRRGSQGDSKQQNGPPRKHIVERYTEFYHVPTHSDASKKRLIEDTEDWRPRTGTTQSRSFRILAQITGTEHLKESEADNTKKANNSQEPSPQLASSVASTRSMPESLDSPTSGRPGVTSLTAAAAFKPVGSTGVIKSPSWQRPNQGVPSTGRISNSATYSGSVAPANSALGQTQPSDQDTLVQRAEHIPAGKRTPMCAHCNQVIRGPFLVALGKSWHPEEFNCAHCKNTMAYIGFVEEKGALYCELCYEKFFAPECGRCQRKILGEVISALKQTWHVSCFVCVACGKPIRNNVFHLEDGEPYCETDYYALFGTICHGCEFPIEAGDMFLEALGYTWHDTCFVCSVCCESLEGQTFFSKKDKPLCKKHAHSVNF
Difference (log2), PP1 vs untreated [1]: -3.258 log2
Difference (log2), untreated vs GFP (GFP-14-3-3β): 1.189 log2

B5: SKIV2L2 (protein, UniProt P42285 2-1042, looked up)
Exosome RNA helicase MTR4: ADAFGDELFSVFEGDSTTAAGTKKDKEKDKGKWKGPPGSADKAGKRFDGKLQSESTNNGKNKRDVDFEGTDEPIFGKKPRIEESITEDLSLADLMPRVKVQSVETVEGCTHEVALPAEEDYLPLKPRVGKAAKEYPFILDAFQREAIQCVDNNQSVLVSAHTSAGKTVCAEYAIALALREKQRVIFTSPIKALSNQKYREMYEEFQDVGLMTGDVTINPTASCLVMTTEILRSMLYRGSEVMREVAWVIFDEIHYMRDSERGVVWEETIILLPDNVHYVFLSATIPNARQFAEWICHLHKQPCHVIYTDYRPTPLQHYIFPAGGDGLHLVVDENGDFREDNFNTAMQVLRDAGDLAKGDQKGRKGGTKGPSNVFKIVKMIMERNFQPVIIFSFSKKDCEAYALQMTKLDFNTDEEKKMVEEVFSNAIDCLSDEDKKLPQVEHVLPLLKRGIGIHHGGLLPILKETIEILFSEGLIKALFATETFAMGINMPARTVLFTNARKFDGKDFRWISSGEYIQMSGRAGRRGMDDRGIVILMVDEKMSPTIGKQLLKGSADPLNSAFHLTYNMVLNLLRVEEINPEYMLEKSFYQFQHYRAIPGVVEKVKNSEEQYNKIVIPNEESVVIYYKIRQQLAKLGKEIEEYIHKPKYCLPFLQPGRLVKVKNEGDDFGWGVVVNFSKKSNVKPNSGELDPLYVVEVLLRCSKESLKNSATEAAKPAKPDEKGEMQVVPVLVHLLSAISSVRLYIPKDLRPVDNRQSVLKSIQEVQKRFPDGIPLLDPIDDMGIQDQGLKKVIQKVEAFEHRMYSHPLHNDPNLETVYTLCEKKAQIAIDIKSAKRELKKARTVLQMDELKCRKRVLRRLGFATSSDVIEMKGRVACEISSADELLLTEMMFNGLFNDLSAEQATALLSCFVFQENSSEMPKLTEQLAGPLRQMQECAKRIAKVSAEAKLEIDEETYLSSFKPHLMDVVYTWATGATFAHICKMTDVFEGSIIRCMRRLEELLRQMCQAAKAIGNTELENKFAEGITKIKRDIVFAASLYL
Difference (log2), PP1 vs untreated [1]: -3.184 log2
Difference (log2), untreated vs GFP (GFP-14-3-3β): 4.62 log2

B7: ARHGEF7 (protein, UniProt Q14155 1-803, looked up)
Rho guanine nucleotide …: MNSAEQTVTWLITLGVLESPKKTISDPEGFLQASLKDGVVLCRLLERLLPGTIEKVYPEPRSESECLSNIREFLRGCGASLRLELLFPPSQPPQHLVTTILLSASTFDANDLYQGQNFNKVLSSLVTLNKVTADIGLGSDSVCARPSSHRIKSFDSLGSQSLHTRTSKLFQGQYRSLDMTDNSNNQLVVRAKFNFQQTNEDELSFSKGDVIHVTRVEEGGWWEGTLNGRTGWFPSNYVREVKASEKPVSPKSGTLKSPPKGFDTTAINKSYYNVVLQNILETENEYSKELQTVLSTYLRPLQTSEKLSSANISYLMGNLEEICSFQQMLVQSLEECTKLPEAQQRVGGCFLNLMPQMKTLYLTYCANHPSAVNVLTEHSEELGEFMETKGASSPGILVLTTGLSKPFMRLDKYPTLLKELERHMEDYHTDRQDIQKSMAAFKNLSAQCQEVRKRKELELQILTEAIRNWEGDDIKTLGNVTYMSQVLIQCAGSEEKNERYLLLFPNVLLMLSASPRMSGFIYQGKLPTTGMTITKLEDSENHRNAFEISGSMIERILVSCNNQQDLQEWVEHLQKQTKVTSVGNPTIKPHSVPSHTLPSHPVTPSSKHADSKPAPLTPAYHTLPHPSHHGTPHTTINWGPLEPPKTPKPWSLSCLRPAPPLRPSAALCYKEDLSKSPKTMKKLLPKRKPERKPSDEEFASRKSTAALEEDAQILKVIEAYCTSAKTRQTLNSTWQGTDLMHNHVLADDDQPSLDSLGRRSSLSRLEPSDLSEDSDYDSIWTAHSYRMGSTSRKSCCSYISHQN
Difference (log2), PP1 vs untreated [1]: -3.042 log2
Difference (log2), untreated vs GFP (GFP-14-3-3β): 2.997 log2

Second part, led by results:

Difference (log2), PP1 vs untreated [1]: -2.973 log2
B1: SRSF10 (protein, UniProt O75494 1-262, looked up)
Serine/arginine-rich splicing …: MSRYLRPPNTSLFVRNVADDTRSEDLRREFGRYGPIVDVYVPLDFYTRRPRGFAYVQFEDVRDAEDALHNLDRKWICGRQIEIQFAQGDRKTPNQMKAKEGRNVYSSSRYDDYDRYRRSRSRSYERRRSRSRSFDYNYRRSYSPRNSRPTGRPRRSRSHSDNDRFKHRNRSFSRSKSNSRSRSKSQPKKEMKAKSRSRSASHTKTRGTSKTDSKTHYKSGSRYEKESRKKEPPRSKSQSRSQSRSRSKSRSRSWTSPKSSGH
Difference (log2), untreated vs GFP (GFP-14-3-3β): 3.797 log2

Difference (log2), PP1 vs untreated [1]: -3.239 log2
B4: ZCCHC8 (protein, UniProt Q6NZY4 2-707, looked up)
Zinc finger CCHC …: AAEVYFGDLELFEPFDHPEESIPKPVHTRFKDDDGDEEDENGVGDAELRERLRQCEETIEQLRAENQELKRKLNILTRPSGILVNDTKLDGPILQILFMNNAISKQYHQEIEEFVSNLVKRFEEQQKNDVEKTSFNLLPQPSSIVLEEDHKVEESCAIKNNKEAFSVVGSVLYFTNFCLDKLGQPLLNENPQLSEGWEIPKYHQVFSHIVSLEGQEIQVKAKRPKPHCFNCGSEEHQMKDCPMPRNAARISEKRKEYMDACGEANNQNFQQRYHAEEVEERFGRFKPGVISEELQDALGVTDKSLPPFIYRMRQLGYPPGWLKEAELENSGLALYDGKDGTDGETEVGEIQQNKSVTYDLSKLVNYPGFNISTPRGIPDEWRIFGSIPMQACQQKDVFANYLTSNFQAPGVKSGNKRSSSHSSPGSPKKQKNESNSAGSPADMELDSDMEVPHGSQSSESFQFQPPLPPDTPPLPRGTPPPVFTPPLPKGTPPLTPSDSPQTRTASGAVDEDALTLEELEEQQRRIWAALEQAESVNSDSDVPVDTPLTGNSVASSPCPNELDLPVPEGKTSEKQTLDEPEVPEIFTKKSEAGHASSPDSEVTSLCQKEKAELAPVNTEGALLDNGSVVPNCDISNGGSQKLFPADTSPSTATKIHSPIPDMSKFATGITPFEFENMAESTGMYLRIRSLLKNSPRNQQKNKKASE
Difference (log2), untreated vs GFP (GFP-14-3-3β): 4.409 log2

Difference (log2), PP1 vs untreated [1]: -3.2926 log2
B6: TSC1 (protein, UniProt Q92574 1-1164, looked up)
Hamartin: MAQQANVGELLAMLDSPMLGVRDDVTAVFKENLNSDRGPMLVNTLVDYYLETSSQPALHILTTLQEPHDKHLLDRINEYVGKAATRLSILSLLGHVIRLQPSWKHKLSQAPLLPSLLKCLKMDTDVVVLTTGVLVLITMLPMIPQSGKQHLLDFFDIFGRLSSWCLKKPGHVAEVYLVHLHASVYALFHRLYGMYPCNFVSFLRSHYSMKENLETFEEVVKPMMEHVRIHPELVTGSKDHELDPRRWKRLETHDVVIECAKISLDPTEASYEDGYSVSHQISARFPHRSADVTTSPYADTQNSYGCATSTPYSTSRLMLLNMPGQLPQTLSSPSTRLITEPPQATLWSPSMVCGMTTPPTSPGNVPPDLSHPYSKVFGTTAGGKGTPLGTPATSPPPAPLCHSDDYVHISLPQATVTPPRKEERMDSARPCLHRQHHLLNDRGSEEPPGSKGSVTLSDLPGFLGDLASEEDSIEKDKEEAAISRELSEITTAEAEPVVPRGGFDSPFYRDSLPGSQRKTHSAASSSQGASVNPEPLHSSLDKLGPDTPKQAFTPIDLPCGSADESPAGDRECQTSLETSIFTPSPCKIPPPTRVGFGSGQPPPYDHLFEVALPKTAHHFVIRKTEELLKKAKGNTEEDGVPSTSPMEVLDRLIQQGADAHSKELNKLPLPSKSVDWTHFGGSPPSDEIRTLRDQLLLLHNQLLYERFKRQQHALRNRRLLRKVIKAAALEEHNAAMKDQLKLQEKDIQMWKVSLQKEQARYNQLQEQRDTMVTKLHSQIRQLQHDREEFYNQSQELQTKLEDCRNMIAELRIELKKANNKVCHTELLLSQVSQKLSNSESVQQQMEFLNRQLLVLGEVNELYLEQLQNKHSDTTKEVEMMKAAYRKELEKNRSHVLQQTQRLDTSQKRILELESHLAKKDHLLLEQKKYLEDVKLQARGQLQAAESRYEAQKRITQVFELEILDLYGRLEKDGLLKKLEEEKAEAAEAAEERLDCCNDGCSDSMVGHNEEASGHNGETKTPRPSSARGSSGSRGGGGSSSSSSELSTPEKPPHQRAGPFSSRWETTMGEASASIPTTVGSLPSSKSFLGMKARELFRNKSESQCDEDGMTSSLSESLKTELGKDLGVEAKIPLNLDGPHPSPPTPDSVGQLHIMDYNETHHEHS
Difference (log2), untreated vs GFP (GFP-14-3-3β): 2.521 log2

Difference (log2), PP1 vs untreated [1]: -2.839 log2
B8: TFE3 (protein, UniProt P19532 1-575, looked up)
Transcription factor E3: MSHAAEPARDGVEASAEGPRAVFVLLEERRPADSAQLLSLNSLLPESGIVADIELENVLDPDSFYELKSQPLPLRSSLPISLQATPATPATLSASSSAGGSRTPAMSSSSSSRVLLRQQLMRAQAQEQERRERREQAAAAPFPSPAPASPAISVVGVSAGGHTLSRPPPAQVPREVLKVQTHLENPTRYHLQQARRQQVKQYLSTTLGPKLASQALTPPPGPASAQPLPAPEAAHTTGPTGSAPNSPMALLTIGSSSEKEIDDVIDEIISLESSYNDEMLSYLPGGTTGLQLPSTLPVSGNLLDVYSSQGVATPAITVSNSCPAELPNIKREISETEAKALLKERQKKDNHNLIERRRRFNINDRIKELGTLIPKSSDPEMRWNKGTILKASVDYIRKLQKEQQRSKDLESRQRSLEQANRSLQLRIQELELQAQIHGLPVPPTPGLLSLATTSASDSLKPEQLDIEEEGRPGAATFHVGGGPAQNAPHQQPPAPPSDALLDLHFPSDHLGDLGDPFHLGLEDILMEEEEGVVGGLSGGALSPLRAASDPLLSSVSPAVSKASSRRSSFSMEEES
Difference (log2), untreated vs GFP (GFP-14-3-3β): 3.895 log2
